System: cocaine
Experiment: Plasma cocaine, benzoylecgonine and ecgonine methyl ester (LC-MS) and cocaine PK after IV cocaine post-AlbuBChE
Type: in vivo, cynomolgus monkeys
Method: Blood was placed into K2EDTA blood collection tubes with esterase inhibitor diisopropylfluorophosphate (DFP). Tubes were inverted several times and placed on wet ice upon collection. Samples were centrifuged at 2-8° C. within 45 minutes of collection. The resultant plasma was recovered and a single 200 μL aliquot of plasma was placed into polypropylene tubes. Plasma samples were frozen over dry ice and stored at −75±15° C.
The following outline describes the LC-MS-based assay employed for the measurement of cocaine in plasma samples. Prior to MS analysis, plasma samples, calibration standards and controls were extracted using supported liquid extraction (SLE-ISOLUTE, Biotage). Twenty-five microliters of samples (25 μL) received 150 μl of 5% Ammonium hydroxide and 25 μl internal standard solution (Cocaine-d3). After mixing and transfer to SLE plate, samples were eluted with methylene chloride and evaporated to dryness. After resuspension in 50 μl of reconstitution solution—5% ACM in 10 mM ammonium acetate in water, 10 μl was injected onto Thermo Hypercarb column at 0.5 ml/min. Mobile phase was biphasic. Mass spectrophotometric detection was performed using Api 4000, APCI positive interface and Multiple Reaction Monitoring (MRM). Plasma concentrations of cocaine, benzoylecgonine and ecgonine methyl ester were determined using this assay.
When the data permits, pharmacokinetic parameter values for cocaine and its metabolites were determined using plasma concentration-times profiles for individual animals at all the study days of cocaine administration. […] Specifically the model for non-compartmental analysis with IV bolus input for cocaine and extravascular input for the metabolites.

[1] = 0.2 mg/kg IM, cocaine 1 mg/kg IV 120 hr post-AlbuBChE, 40 min after cocaine
[2] = 0.2 mg/kg IM, cocaine 1 mg/kg IV 120 hr post-AlbuBChE, 60 min after cocaine
[3] = 0.2 mg/kg IM, cocaine 1 mg/kg IV 240 hr post-AlbuBChE
[4] = 0.2 mg/kg IM, cocaine 1 mg/kg IV 240 hr post-AlbuBChE, 5 min after cocaine
[5] = 0.2 mg/kg IM, cocaine 1 mg/kg IV 240 hr post-AlbuBChE, 10 min after cocaine
[6] = 0.2 mg/kg IM, cocaine 1 mg/kg IV 240 hr post-AlbuBChE, 15 min after cocaine
[7] = 0.2 mg/kg IM, cocaine 1 mg/kg IV 240 hr post-AlbuBChE, 20 min after cocaine
[8] = 0.2 mg/kg IM, cocaine 1 mg/kg IV 240 hr post-AlbuBChE, 30 min after cocaine
[9] = 0.2 mg/kg IM, cocaine 1 mg/kg IV 240 hr post-AlbuBChE, 40 min after cocaine
[10] = 0.2 mg/kg IM, cocaine 1 mg/kg IV 240 hr post-AlbuBChE, 60 min after cocaine
[11] = 1 mg/kg IM, cocaine 1 mg/kg IV 2 hr post-AlbuBChE
[12] = 1 mg/kg IM, cocaine 1 mg/kg IV 2 hr post-AlbuBChE, 5 min after cocaine
[13] = 1 mg/kg IM, cocaine 1 mg/kg IV 2 hr post-AlbuBChE, 10 min after cocaine
[14] = 1 mg/kg IM, cocaine 1 mg/kg IV 2 hr post-AlbuBChE, 15 min after cocaine
[15] = 1 mg/kg IM, cocaine 1 mg/kg IV 2 hr post-AlbuBChE, 20 min after cocaine
[16] = 1 mg/kg IM, cocaine 1 mg/kg IV 2 hr post-AlbuBChE, 30 min after cocaine
[17] = 1 mg/kg IM, cocaine 1 mg/kg IV 2 hr post-AlbuBChE, 40 min after cocaine
[18] = 1 mg/kg IM, cocaine 1 mg/kg IV 2 hr post-AlbuBChE, 60 min after cocaine
[19] = 1 mg/kg IM, cocaine 1 mg/kg IV 48 hr post-AlbuBChE
[20] = 1 mg/kg IM, cocaine 1 mg/kg IV 48 hr post-AlbuBChE, 5 min after cocaine
[21] = 1 mg/kg IM, cocaine 1 mg/kg IV 48 hr post-AlbuBChE, 10 min after cocaine
[22] = 1 mg/kg IM, cocaine 1 mg/kg IV 48 hr post-AlbuBChE, 15 min after cocaine
[23] = 1 mg/kg IM, cocaine 1 mg/kg IV 48 hr post-AlbuBChE, 20 min after cocaine
[24] = 1 mg/kg IM, cocaine 1 mg/kg IV 48 hr post-AlbuBChE, 30 min after cocaine
[25] = 1 mg/kg IM, cocaine 1 mg/kg IV 48 hr post-AlbuBChE, 40 min after cocaine
[26] = 1 mg/kg IM, cocaine 1 mg/kg IV 48 hr post-AlbuBChE, 60 min after cocaine
[27] = 1 mg/kg IM, cocaine 1 mg/kg IV 96 hr post-AlbuBChE
[28] = 1 mg/kg IM, cocaine 1 mg/kg IV 96 hr post-AlbuBChE, 5 min after cocaine
[29] = 1 mg/kg IM, cocaine 1 mg/kg IV 96 hr post-AlbuBChE, 10 min after cocaine
[30] = 1 mg/kg IM, cocaine 1 mg/kg IV 96 hr post-AlbuBChE, 15 min after cocaine

With AlbuBChE the “Ecgonine methyl ester plasma concentration (mean)” value [1] was 98 ng/mL, the “Mean benzoylecgonine plasma concentration” value [1] was 61.4 ng/mL and the “Mean cocaine plasma concentration” value [1] was 141 ng/mL. For the same substance, the “Ecgonine methyl ester plasma concentration (mean)” value [2] was 82.9 ng/mL, the “Mean benzoylecgonine plasma concentration” value [2] was 66.2 ng/mL and the “Mean cocaine plasma concentration” value [2] was 64.7 ng/mL. For the same substance, the “Mean benzoylecgonine AUC(0-t)” value [3] was 4089 ng·min/mL, the “Mean cocaine AUC % Extrap” value [3] was 21.6% and the “Mean cocaine AUC(0-t)” value [3] was 13693 ng·min/mL. For the same substance, the “Mean cocaine AUC(0-∞)” value [3] was 17650 ng·min/mL, the “Mean cocaine C0” value [3] was 0.549 µg/mL and the “Mean cocaine CI” value [3] was 3.44 L/h/kg. The “Mean cocaine Vss” value [3] was 2.181 L/kg, the “Mean cocaine t½” value [3] was 29.2 min and the “Ecgonine methyl ester plasma concentration (mean)” value [4] was 20.1 ng/mL. The “Mean benzoylecgonine plasma concentration” value [4] was 53.5 ng/mL, the “Mean cocaine plasma concentration” value [4] was 453 ng/mL and the “Ecgonine methyl ester plasma concentration (mean)” value [5] was 23.1 ng/mL. For the same substance, the “Mean benzoylecgonine plasma concentration” value [5] was 53.3 ng/mL, the “Mean cocaine plasma concentration” value [5] was 379 ng/mL and the “Ecgonine methyl ester plasma concentration (mean)” value [6] was 25.1 ng/mL. The “Mean benzoylecgonine plasma concentration” value [6] was 62.9 ng/mL, the “Mean cocaine plasma concentration” value [6] was 297 ng/mL and the “Ecgonine methyl ester plasma concentration (mean)” value [7] was 28.3 ng/mL. For the same substance, the “Mean benzoylecgonine plasma concentration” value [7] was 63.7 ng/mL, the “Mean cocaine plasma concentration” value [7] was 254 ng/mL and the “Ecgonine methyl ester plasma concentration (mean)” value [8] was 33.9 ng/mL. The “Mean benzoylecgonine plasma concentration” value [8] was 69.8 ng/mL, the “Mean cocaine plasma concentration” value [8] was 189 ng/mL and the “Ecgonine methyl ester plasma concentration (mean)” value [9] was 38.8 ng/mL. The “Mean benzoylecgonine plasma concentration” value [9] was 74.5 ng/mL, the “Mean cocaine plasma concentration” value [9] was 133 ng/mL and the “Ecgonine methyl ester plasma concentration (mean)” value [10] was 41.4 ng/mL. The “Mean benzoylecgonine plasma concentration” value [10] was 80.9 ng/mL, the “Mean cocaine plasma concentration” value [10] was 89.5 ng/mL and the “Mean benzoylecgonine AUC(0-t)” value [11] was 1960 ng·min/mL. The “Mean cocaine AUC(0-t)” value [11] was 7880 ng·min/mL, the “Mean cocaine C0” value [11] was 0.422 µg/mL and the “Ecgonine methyl ester plasma concentration (mean)” value [12] was 235 ng/mL. For the same substance, the “Mean benzoylecgonine plasma concentration” value [12] was 30.1 ng/mL, the “Mean cocaine plasma concentration” value [12] was 308 ng/mL and the “Ecgonine methyl ester plasma concentration (mean)” value [13] was 227 ng/mL. The “Mean benzoylecgonine plasma concentration” value [13] was 33.2 ng/mL, the “Mean cocaine plasma concentration” value [13] was 235 ng/mL and the “Ecgonine methyl ester plasma concentration (mean)” value [14] was 276 ng/mL. The “Mean benzoylecgonine plasma concentration” value [14] was 32.5 ng/mL, the “Mean cocaine plasma concentration” value [14] was 179 ng/mL and the “Ecgonine methyl ester plasma concentration (mean)” value [15] was 301 ng/mL. For the same substance, the “Mean benzoylecgonine plasma concentration” value [15] was 32.5 ng/mL, the “Mean cocaine plasma concentration” value [15] was 73.7 ng/mL and the “Ecgonine methyl ester plasma concentration (mean)” value [16] was 291 ng/mL. For the same substance, the “Mean benzoylecgonine plasma concentration” value [16] was 28.9 ng/mL, the “Mean cocaine plasma concentration” value [16] was 102 ng/mL and the “Ecgonine methyl ester plasma concentration (mean)” value [17] was 202 ng/mL. The “Mean benzoylecgonine plasma concentration” value [17] was 38.4 ng/mL, the “Mean cocaine plasma concentration” value [17] was 96.9 ng/mL and the “Ecgonine methyl ester plasma concentration (mean)” value [18] was 189 ng/mL. For the same substance, the “Mean benzoylecgonine plasma concentration” value [18] was 29.6 ng/mL, the “Mean cocaine plasma concentration” value [18] was 19.7 ng/mL and the “Mean benzoylecgonine AUC(0-t)” value [19] was 1668 ng·min/mL. For the same substance, the “Mean cocaine AUC % Extrap” value [19] was 11.9%, the “Mean cocaine AUC(0-t)” value [19] was 5965 ng·min/mL and the “Mean cocaine AUC(0-∞)” value [19] was 6764 ng·min/mL. For the same substance, the “Mean cocaine C0” value [19] was 0.226 µg/mL, the “Mean cocaine CI” value [19] was 9 L/h/kg and the “Mean cocaine Vss” value [19] was 4.304 L/kg. For the same substance, the “Mean cocaine t½” value [19] was 19.0 min, the “Ecgonine methyl ester plasma concentration (mean)” value [20] was 201 ng/mL and the “Mean benzoylecgonine plasma concentration” value [20] was 24.0 ng/mL. The “Mean cocaine plasma concentration” value [20] was 176 ng/mL, the “Ecgonine methyl ester plasma concentration (mean)” value [21] was 32.2 ng/mL and the “Mean benzoylecgonine plasma concentration” value [21] was 23.7 ng/mL. The “Mean cocaine plasma concentration” value [21] was 140 ng/mL, the “Ecgonine methyl ester plasma concentration (mean)” value [22] was 48.2 ng/mL and the “Mean benzoylecgonine plasma concentration” value [22] was 24.9 ng/mL. For the same substance, the “Mean cocaine plasma concentration” value [22] was 152 ng/mL, the “Ecgonine methyl ester plasma concentration (mean)” value [23] was 56.2 ng/mL and the “Mean benzoylecgonine plasma concentration” value [23] was 26.7 ng/mL. For the same substance, the “Mean cocaine plasma concentration” value [23] was 128 ng/mL, the “Ecgonine methyl ester plasma concentration (mean)” value [24] was 63.8 ng/mL and the “Mean benzoylecgonine plasma concentration” value [24] was 29.8 ng/mL. The “Mean cocaine plasma concentration” value [24] was 87.0 ng/mL, the “Ecgonine methyl ester plasma concentration (mean)” value [25] was 64.9 ng/mL and the “Mean benzoylecgonine plasma concentration” value [25] was 29.6 ng/mL. For the same substance, the “Mean cocaine plasma concentration” value [25] was 62.3 ng/mL, the “Ecgonine methyl ester plasma concentration (mean)” value [26] was 57.3 ng/mL and the “Mean benzoylecgonine plasma concentration” value [26] was 29.8 ng/mL. The “Mean cocaine plasma concentration” value [26] was 29.1 ng/mL, the “Mean benzoylecgonine AUC(0-t)” value [27] was 2741 ng·min/mL and the “Mean cocaine AUC % Extrap” value [27] was 18.4%. The “Mean cocaine AUC(0-t)” value [27] was 10044 ng·min/mL, the “Mean cocaine AUC(0-∞)” value [27] was 12313 ng·min/mL and the “Mean cocaine C0” value [27] was 0.288 µg/mL. For the same substance, the “Mean cocaine CI” value [27] was 4.9 L/h/kg, the “Mean cocaine Vss” value [27] was 2.94 L/kg and the “Mean cocaine t½” value [27] was 23.9 min. The “Ecgonine methyl ester plasma concentration (mean)” value [28] was 138 ng/mL, the “Mean benzoylecgonine plasma concentration” value [28] was 43.9 ng/mL and the “Mean cocaine plasma concentration” value [28] was 265 ng/mL. The “Ecgonine methyl ester plasma concentration (mean)” value [29] was 39.8 ng/mL, the “Mean benzoylecgonine plasma concentration” value [29] was 41.2 ng/mL and the “Mean cocaine plasma concentration” value [29] was 245 ng/mL. For the same substance, the “Ecgonine methyl ester plasma concentration (mean)” value [30] was 42.9 ng/mL, the “Mean benzoylecgonine plasma concentration” value [30] was 40.0 ng/mL and the “Mean cocaine plasma concentration” value [30] was 218 ng/mL.
